Experimental data from US20170342144A1 (Sanofi, published 2017).
Numbering of substitutions follows the chain as printed.

T1: human TGFβ2 (human, UniProt P61812 303-414)
T1 construct: also called TGFβ2 homodimer
T1 sequence: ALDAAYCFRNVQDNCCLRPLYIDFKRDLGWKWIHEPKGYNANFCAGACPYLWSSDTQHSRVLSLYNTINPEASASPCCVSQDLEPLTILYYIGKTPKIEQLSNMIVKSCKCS

T2: human TGFβ3 (human, UniProt P10600 301-412)
T2 sequence: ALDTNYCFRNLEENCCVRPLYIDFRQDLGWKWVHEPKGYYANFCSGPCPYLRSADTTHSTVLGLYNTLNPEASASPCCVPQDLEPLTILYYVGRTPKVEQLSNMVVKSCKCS

B1: I54V (antibody, V domains shown)
VH: QVQLVQSGAEVKKPGSSVKVSCKASGYTFSSNVISWVRQAPGQGLEWMGGVIPVVDIANYAQRFKGRVTITADESTSTTYMELSSLRSEDTAVYYCASTLGLVLDAMDYWGQGTLVTVSS
VL: ETVLTQSPGTLSLSPGERATLSCRASQSLGSSYLAWYQQKPGQAPRLLIYGASSRAPGIPDRFSGSGSGTDFTLTISRLEPEDFAVYYCQQYADSPITFGQGTRLEIK
notes: GC1008 IgG4 variant
B2: S30D (antibody, V domains shown)
VH: B1 VH with S30D, V54I
VL: B1 VL
notes: GC1008 IgG4 variant
B3: N32M (antibody, V domains shown)
VH: B1 VH with N32M, V54I
VL: B1 VL
notes: GC1008 IgG4 variant
B4: N32D (antibody, V domains shown)
VH: B1 VH with N32D, V54I
VL: B1 VL
notes: GC1008 IgG4 variant
B5: S30V (antibody, V domains shown)
VH: B1 VH with S30V, V54I
VL: B1 VL
notes: GC1008 IgG4 variant
B6: S30Q (antibody, V domains shown)
VH: B1 VH with S30Q, V54I
VL: B1 VL
notes: GC1008 IgG4 variant
B7: S30T (antibody, V domains shown)
VH: B1 VH with S30T, V54I
VL: B1 VL
notes: GC1008 IgG4 variant
B8: N32A (antibody, V domains shown)
VH: B1 VH with N32A, V54I
VL: B1 VL
notes: GC1008 IgG4 variant
B9: N32G (antibody, V domains shown)
VH: B1 VH with N32G, V54I
VL: B1 VL
notes: GC1008 IgG4 variant
B10: S30I (antibody, V domains shown)
VH: B1 VH with S30I, V54I
VL: B1 VL
notes: GC1008 IgG4 variant
B11: N59R (antibody, V domains shown)
VH: B1 VH with V54I, N59R
VL: B1 VL
notes: GC1008 IgG4 variant
B12: N32P (antibody, V domains shown)
VH: B1 VH with N32P, V54I
VL: B1 VL
notes: GC1008 IgG4 variant
B13: N32L (antibody, V domains shown)
VH: B1 VH with N32L, V54I
VL: B1 VL
notes: GC1008 IgG4 variant
B14: N32Y (antibody, V domains shown)
VH: B1 VH with N32Y, V54I
VL: B1 VL
notes: GC1008 IgG4 variant
B15: S30P (antibody, V domains shown)
VH: B1 VH with S30P, V54I
VL: B1 VL
notes: GC1008 IgG4 variant
B16: N32V (antibody, V domains shown)
VH: B1 VH with N32V, V54I
VL: B1 VL
notes: GC1008 IgG4 variant
B17: S30N (antibody, V domains shown)
VH: B1 VH with S30N, V54I
VL: B1 VL
notes: GC1008 IgG4 variant
B18: N32T (antibody, V domains shown)
VH: B1 VH with N32T, V54I
VL: B1 VL
notes: GC1008 IgG4 variant
B19: N59Y (antibody, V domains shown)
VH: B1 VH with V54I, N59Y
VL: B1 VL
notes: GC1008 IgG4 variant
B20: N32S (antibody, V domains shown)
VH: B1 VH with N32S, V54I
VL: B1 VL
notes: GC1008 IgG4 variant
B21: S30G (antibody, V domains shown)
VH: B1 VH with S30G, V54I
VL: B1 VL
notes: GC1008 IgG4 variant
B22: S30R (antibody, V domains shown)
VH: B1 VH with S30R, V54I
VL: B1 VL
notes: GC1008 IgG4 variant
B23: S30M (antibody, V domains shown)
VH: B1 VH with S30M, V54I
VL: B1 VL
notes: GC1008 IgG4 variant
B24: L104W (antibody, V domains shown)
VH: B1 VH with V54I, L104W
VL: B1 VL
notes: GC1008 IgG4 variant
B25: S30C (antibody, V domains shown)
VH: B1 VH with S30C, V54I
VL: B1 VL
notes: GC1008 IgG4 variant
B26: N32W (antibody, V domains shown)
VH: B1 VH with N32W, V54I
VL: B1 VL
notes: GC1008 IgG4 variant
B27: N32Q (antibody, V domains shown)
VH: B1 VH with N32Q, V54I
VL: B1 VL
notes: GC1008 IgG4 variant
B28: S30F (antibody, V domains shown)
VH: B1 VH with S30F, V54I
VL: B1 VL
notes: GC1008 IgG4 variant
B29: S30L (antibody, V domains shown)
VH: B1 VH with S30L, V54I
VL: B1 VL
notes: GC1008 IgG4 variant
B30: P53I (antibody, V domains shown)
VH: B1 VH with P53I, V54I
VL: B1 VL
notes: GC1008 IgG4 variant
B31: N32R (antibody, V domains shown)
VH: B1 VH with N32R, V54I
VL: B1 VL
notes: GC1008 IgG4 variant

target: T1, human TGFβ2; experiment: Biacore off-rate vs wt GC1008, 50 nM
Source text: (§1) Plasmids encoding either the GC1008 heavy chain or light chain were used as a template in PCR-based mutagenesis reactions. Mutations to the encoding DNA were made to create 155 single amino acid substitutions of the encoded heavy chain amino acid sequence and one single amino acid substitution of the encoded light chain amino acid sequence. A QuikChange® Lightning Site-Directed Mutagenesis kit (Agilent Technologies, Santa Clara Calif.) was used according to the manufacturer's instructions to create DNA mutations using a set of forward and reverse primers, either designed for a specific amino acid or for all 20 amino acids with a degenerate codon (NNK). After sequencing confirmation, identified mutant DNA was paired with a wild-type light or heavy chain DNA for transfection into an Expi293F™ host cell suspension (Life Techonologies Corp., Grand Island, N.Y.). At 4 days post-transfection, conditioned media (1 mL) was harvested and purified using a 1 mL Protein A PhyTip® column (PhyNexus, Inc., San Jose, Calif.) and a PureSpeed™ 12-channel pipette (Rainin Instrument LLC, Oakland, Calif.). Purified variant antibody samples were analyzed in duplicate on a Biacore® 3000 (GE Healthcare) at 50 nM concentrations, using the 100 RU level TGFβ1, 2, and 3 immobilized surfaces. The off-rate (kd) of the variants was divided by the kd of the wild-type control to obtain the fold change in the kd. […] A heat map was generated to visualize the results. Variants that completely lost affinity for TGFβ were shown in red without numbers.

kd var/kd wt | Binder
1 | B1
1.2 | B2
1.3 | B3
1.4 | B4
1.2 | B5
1.2 | B6
1.2 | B7
1.4 | B8
1.2 | B9
1.1 | B10
1.1 | B11
1.1 | B12
1.3 | B13
1.2 | B14
1 | B15
1.1 | B16

kd var/kd wt | Binder
1.3 | B17
1.2 | B18
1.1 | B19
1.3 | B20
0.7 | B21
1.2 | B22
0.9 | B23
2.9 | B24
1.1 | B25
1.2 | B26
0.8 | B27
0.9 | B28
1 | B29
1.6 | B30
1.2 | B31

target: T3, human TGFβ1 (human, UniProt P01137 279-390); experiment: Biacore off-rate vs wt GC1008, 50 nM
T3 construct: also called TGFβ1 homodimer
Source text: as §1

T3 sequence (P01137 279-390 limits assumed): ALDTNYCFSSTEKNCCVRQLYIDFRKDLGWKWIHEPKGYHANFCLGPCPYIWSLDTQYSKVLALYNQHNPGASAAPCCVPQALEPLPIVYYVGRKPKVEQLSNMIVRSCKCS

kd var/kd wt | Binder
1 | B1
1.4 | B2
1.3 | B3
1.3 | B4
1.1 | B5
1.2 | B6
1.2 | B7
1.3 | B8
1.2 | B9
1.4 | B10
2.4 | B11
2 | B12
1.6 | B13
2.1 | B14
1.2 | B15
1.5 | B16

kd var/kd wt | Binder
1.3 | B17
1.5 | B18
1.3 | B19
1.3 | B20
0.9 | B21
1.9 | B22
0.7 | B23
4.7 | B24
1.2 | B25
1.9 | B26
0.8 | B27
1 | B28
1 | B29
4.3 | B30
2.3 | B31

target: T2, human TGFβ3; experiment: Biacore off-rate vs wt GC1008, 50 nM
Source text: as §1

kd var/kd wt | Binder
0.8 | B1
1.1 | B2
1.2 | B3
1.8 | B4
1.1 | B5
1.1 | B6
1.1 | B7
1.5 | B8
1.6 | B9
1.1 | B10
1.5 | B11
1.4 | B12
1.7 | B13
1.7 | B14
0.9 | B15
1.4 | B16

kd var/kd wt | Binder
1.2 | B17
1.1 | B18
1.5 | B19
1.2 | B20
0.9 | B21
1.3 | B22
1 | B23
5.1 | B24
1 | B25
1.1 | B26
0.7 | B27
0.7 | B28
1 | B29
1.3 | B30
1.7 | B31
